Reference: US20130172283A1, “LYOPHILIZED FORMULATION OF PECTIN-ADRIAMYCIN CONJUGATE AND PREPARATION METHOD THEREOF” (CHONGQING LUMMY PHARMACEUTICAL CO., LTD., priority 2010, published 2013)

Assays:
solubility tests of PAC = assay type: physicochemical; conditions: repeated solubility tests
From the text: Insoluble drugs have two major problems in clinical application, one problem is low bioavailability due to low solubility of the drugs, and the other problem is that conventional formulation methods have certain restriction on application of the insoluble drugs.

[1] = monitoring of drug loading rate in long-term storage (UV absorbance at 480 nm); assay type: physicochemical; conditions: initial, bulk drug
Procedure: 10.7 mg adriamycin hydrochloride was precisely weighed and placed in a 100 mL volumetric flask, diluted with sterile water for injection to volume as stock solution, and underwent ultrasonic treatment for 5 min for even mixing; 0.2 ml, 0.4 ml, 0.8 ml, 1.2 ml, 1.6 ml and 2 ml adriamycin hydrochloride stock solution were pipetted and placed in 5 ml volumetric flasks respectively, diluted with sterile water for injection to volume, and shook up. Using ultraviolet spectrophotometry, absorbance A values of adriamycin solution were determined at the series of concentration gradients at 480 nm, and linear regression was performed by taking absorbance A as a vertical coordinate and mass concentration C (mg·mL-1) of adriamycin as horizontal coordinate to obtain an equation: A=0.0178C+0.0284, R2=0.9994 (n=3).
1 mL PAC nanosuspension (prepared according to a preferable solution) was precisely pipetted and placed in a 50 mL volumetric flask (concentration of the PAC nanosuspension was 7.76 mg/mL), diluted with sterile water for injection to volume and shook up, and then proper amount was pipetted to determine absorbance at 480 nm so as to obtain adriamycin concentration Cx with the standard curve. Drug loading rate of the PAC=(Cx/7.76)*100%. […]

Substance: pectin-adriamycin conjugate [PAC]
- solubility (solubility tests of PAC): insoluble
- drug loading rate [1]: 25.8%
